From paper PMC8087810, “Interfacing aptamers, nanoparticles and graphene in a hierarchical structure for highly selective detection of biomolecules in OECT devices”

Target: alpha-thrombin (UniProt P00734;P00734 328-363;364-622)
Experiment: OECT aptasensor (sigmoidal fit of delta ratio, EC50); EC50 of sensor response, 1-100 pM thrombin, Tris buffer; LoD 5.000±0.087 pM; surface-immobilized aptamer; Thrombin: Tris buffer (composition not in material); BSA: PBS (137 mM NaCl, 2.7 mM KCl, 10 mM Na2HPO4, 1.8 mM KH2PO4), pH 7.4 (Tris stated as same pH); BSA and

B1: TBA15 (thrombin binding aptamer, Fc/SH modified) (structured_DNA)
DNA: GGTTGGTGTGGTTGG
modifications: 5' ferrocene; 3' C6-SH thiol, immobilized on AuNPs-PMLG gate electrode, MCH blocked
apparent K (half saturation): 0.0489 nM
